Measured values from patent US20260242759A1, “GQ/11 Protein Peptidomimetics” (Vrije Universiteit Brussel, priority 2022, published 2026).
Positions of bridges follow the written chain, without caps; N, C: chain ends. Non-standard residues stand in square brackets, D forms with d. Residues, ends and D or L forms follow the SMILES beside them. Triazole bridges read from a SMILES are 1,4-linked. Lys(N3) = [N-]=[N+]=NCCCC[C@H](N)C(=O)O; Cha = N[C@@H](CC1CCCCC1)C(=O)O; Pra = C#CC[C@H](N)C(=O)O

Legend:
[1] = target: T1, human ghrelin receptor (GHSR) (Homo sapiens, UniProt Q92847, C146S/C304S); experiment: Bimane fluorescence assay on purified ghrelin receptor in nanodiscs; type: biochemical; conditions: bimane labeled GHSR; for maximum emission wavelength of bimane: in presence of full agonist JMV1843 (20 μM)
T1 construct: integrin α5 fragment (N); polyhistidine tag (C); made in house; host or cells: E. coli BL21(DE3)
Text: Another assay that can be used to analyse conformational changes associated with GPCR activation and/or to identify G protein peptidomimetics that are capable of stabilizing a GPCR in an active conformational state is the bimane fluorescence assay or bimane assay. This assay works through labelling of a cysteine residue in the lower part of the TM6 of a GPCR with a bimane-fluorophore (monobromobimane (MB)). Binding of an agonist to the GPCR causes a conformational change and outward movement of TM6 that places bimane in a more solved-exposed position, which will alter its maximum emission wavelength. In particular, increasing concentrations of agonist result in a concentration-dependent red-shift of the maximum emission wavelength (λmax) of the bimane-fluorophore probe. In the presence of a G protein or an active state stabilizing G protein peptidomimetic λmax may increase further. For example, a bimane labelled ghrelin receptor (such as a cysmin mutant (i.e. mutant with minimal cysteines) of human ghrelin receptor (also referred to herein as growth hormone secretagogue receptor (GHSR) (e.g. the mutant as described in Damian et al. (2021) wherein monobromobimane (MB) fluorescent probe is attached to Cys^255) and ghrelin receptor agonist JMV1843 may be used.
The bimane fluorescence assays on the ghrelin receptor were performed as described in Damian et al. (2021. Nat. Commun. 12:1-15). Briefly, E. coli bacteria (BL21(DE3)) were transformed with a vector encoding the human ghrelin receptor with an integrin α5 fragment at the N-terminus and a polyhistidine tag at the C-terminus. The receptors were then purified and reconstituted into lipidated nanodiscs. The monobromobimane labeling was performed by incubating the receptors, with a unique reactive cysteine at position 255, during 16 h in the dark at 4° C. and in the presence of 0.1 mM tris(2-carboxyethyl)phosphine (TCEO). The reaction was terminated with 5 mM L-cysteine and unreacted monobromobimane was removed using a Zeba™ Spin desalting column.
For the fluorescence assay, the labeled receptor was incubated during 2 h at 20° C. (0.2 μM final concentration), in the absence or presence of the full agonist JMV1843 (20 μM) and in the absence or presence of either the peptidomimetics at varying molar ratios or the purified Gαqβ1γ2 heterotrimer, at a 1:5 receptor-to-G protein molar ratio. Afterwards, the fluorescence experiments were performed on a Horiba Fluoromax-4 TCSP spectrofluorimeter. For each scan, the excitation wavelength (λexc) was set at 380 nm and emission was collected between 440 nm and 520 nm.
The bimane assay is used on GPCRs to detect conformational changes associated with receptor activation. This assay functions through the labelling of a cysteine, which is one of the least frequently occurring amino acids in proteins. Additionally, the majority of the extracellular cysteines form disulfide bonds, which, together with the transmembrane cysteines, are inert to thiol-reactive reagents. Additionally, some of the intracellular cysteines in the C-terminal tail may carry post-translational modifications which reduces the number of reactive cysteines in the receptor (Tian et al. 2017. Chem. Rev. 117:186-245). For GHSR, the remaining reactive cysteine residues C146 (ICL2) and C304 (extracellular end of TM7) were replaced by serines (cysmin mutant, i.e. mutant with minimal cysteines), to allow the monobromobimane (MB) fluorescent probe to be specifically attached to Cys255 in the lower part of TM6 (FIG. 5a) (Damian et al. 2021). In this assay, bimane is chosen because of its small size and sensitivity to the polarity of its environment (Yao et al. 2006. Nat Chem. Biol. 2:417-422). Binding of a ligand to the receptor, causes a conformational change and outward movement of TM6 that places bimane in a more solvent-exposed position, which alters its maximum emission wavelength. […]

[2] = target: T2, human muscarinic 1 receptor (M1R) (Homo sapiens, UniProt P11229); experiment: Radioligand binding assay (RLA) on M1R membrane extracts; conditions: for Shift: IC50 of agonist without mimetic divided by IC50 with mimetic, averaged value; for increase of agonist affinity / stabilization of the receptor: acetylcholine chloride, mimetic at 100 μM
T2 construct: The M1R constructs used in this assay consisted of the full-length human muscarinic 1 receptor; FLAG (N); expressed in transfected cells; membrane extracts
T2 sequence (P11229 1-460): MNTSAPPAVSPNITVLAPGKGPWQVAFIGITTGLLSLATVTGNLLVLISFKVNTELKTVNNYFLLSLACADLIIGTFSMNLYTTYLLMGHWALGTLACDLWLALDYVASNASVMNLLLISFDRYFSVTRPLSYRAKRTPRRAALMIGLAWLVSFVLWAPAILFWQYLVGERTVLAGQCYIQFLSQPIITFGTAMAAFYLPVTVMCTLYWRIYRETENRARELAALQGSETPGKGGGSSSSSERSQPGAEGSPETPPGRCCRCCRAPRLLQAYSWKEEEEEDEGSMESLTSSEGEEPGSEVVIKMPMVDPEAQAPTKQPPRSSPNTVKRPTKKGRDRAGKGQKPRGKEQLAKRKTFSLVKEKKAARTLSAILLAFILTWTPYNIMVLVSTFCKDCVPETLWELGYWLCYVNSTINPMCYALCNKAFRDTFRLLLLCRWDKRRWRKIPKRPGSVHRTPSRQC
Text: A radioligand displacement assay can quantify the pharmacological stabilization of the GPCR in the active conformation by comparing the affinities of an agonist for the basal versus the active GPCR conformer. In particular, stabilization of a GPCR in an active conformational state or specific binding to a GPCR in an active conformational state by a G protein peptidomimetic or a Gq/11 protein peptidomimetic as disclosed herein can be determined based on the shift in IC50 value of a ligand, in particular an agonist more particularly an orthosteric agonist, which binds to the GPCR when tested in the presence and the absence of the G protein peptidomimetic or the Gq/11 protein peptidomimetic. During the assay, the binding affinity of an orthosteric agonist for the receptor in presence and absence of the (allosteric) peptidomimetic is determined. Therefore, the GPCR, e.g. embedded in membrane extracts, is incubated with a radioligand and different concentrations of the agonist. By increasing the agonist concentration, radioligand will be displaced by the agonist. A leftward shift of the curve in the presence of the peptidomimetic is indicative of a peptidomimetic capable of stabilizing a GPCR in an active conformational state. A “shift” in IC50 value or IC50 shift is defined herein as the IC50 ratio of a ligand, in particular an agonist, more particularly an orthosteric agonist, which binds to the GPCR in the absence of a G protein peptidomimetic or a Gq/11 protein peptidomimetic relative to the presence of the G protein peptidomimetic or the Gq/11 protein peptidomimetic, or the IC50 value of a ligand, in particular an agonist, for binding to the GPCR in the absence of a G protein peptidomimetic or a Gq/11 protein peptidomimetic divided by the IC50 value of the ligand in the presence of the G protein peptidomimetic or the Gq/11 protein peptidomimetic in the same preparation, wherein said IC50 values are determined in a radioligand binding assay or radioligand displacement assay (RLA) as known to the skilled person. For example, a human muscarinic acetylcholine 1 receptor (M1R) radioligand binding assay using ^3H—N-methyl scopolamine (^3H-NMS) as the radioligand and increasing concentrations of acetylcholine chloride (agonist) as cold competitor may be used.
The membrane extracts were prepared from cells that overexpressed muscarinic acetylcholine 1 receptor (M1R), by resuspending the cell pellet in a buffer (1 ml buffer/2×1E7 cells) containing 20 mM Hepes (pH 7.4), 100 mM NaCl, Leupeptin and phenylmethylsulfonyl fluoride (PMSF). Afterwards the cells were vortexed and homogenized in ice using a small volume ULTRA-TURRAX® (6×10 sec). The cells were then centrifuged for 15 min at 16000 rcf, in a pre-cooled centrifuge (4° C.) and resuspended in the previous buffer containing 10% sucrose. Finally, the membranes were again homogenized in ice with the small volume ULTRA-TURRAX® (3×10 sec). The protein concentration in the membrane extracts was determined using a Pierce™ bicinchoninic acidv (BCA) Protein Assay Kit and the protein concentration was extrapolated from the Bovine Serum Albumine standard curve.
The M1R constructs used in this assay consisted of the full-length human muscarinic 1 receptor with a FLAG tag at the N-terminus. A buffer containing 20 mM Hepes pH 7.4, 100 mM NaCl, and 0.1% BSA was used for the ligands, membrane extracts and peptides (+1% dimethylsulfoxide (DMSO)). The competition assay was performed with [3H]—N-methyl scopolamine ([3H]-NMS) as radiolabeled antagonist, at a final concentration of 0.6 nM. A ten-fold dilution series of the agonist, acetylcholine chloride, was prepared to obtain a dose response curve. After incubation, the samples were harvested into filter plates (GF/C) and washed with ice cold washing buffer (20 mM Hepes pH 7.4) using the 96-well harvester. […]

[3] = target: T3, ghrelin receptor overexpressed on HEK293 cells (UniProt Q92847 1-366, limits assumed); experiment: cell-based or functional assay
[4] = target: T3, ghrelin receptor overexpressed on …; experiment: cell-based or functional assay; remark: listed apart in the source

T1 sequence (Q92847 whole entry C146S/C304S, the tested form may be a part): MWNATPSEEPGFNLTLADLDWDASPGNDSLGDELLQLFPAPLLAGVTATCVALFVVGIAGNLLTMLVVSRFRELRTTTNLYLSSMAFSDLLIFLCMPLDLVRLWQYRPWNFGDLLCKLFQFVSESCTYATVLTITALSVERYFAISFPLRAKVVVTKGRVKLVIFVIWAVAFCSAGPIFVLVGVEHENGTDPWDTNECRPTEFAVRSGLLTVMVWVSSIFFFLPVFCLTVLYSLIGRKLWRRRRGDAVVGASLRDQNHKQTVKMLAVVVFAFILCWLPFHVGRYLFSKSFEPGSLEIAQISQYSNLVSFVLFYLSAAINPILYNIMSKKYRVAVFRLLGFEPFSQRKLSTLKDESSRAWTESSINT
T3 sequence (Q92847 whole entry): as the sequence (Q92847 whole entry C146S/C304S, the tested form may be a part) above, with S146C, S304C counted along it

## CC[C@H](C)[C@H](NC(=O)[C@@H]1CCCCn2cc(nn2)C[C@H](NC(=O)[C@H](C)NC(=O)[C@H](Cc2ccccc2)NC(=O)[C@H](CCCCN)NC(=O)[C@H](CCCCN)NC(=O)[C@H](CCCCN)NC(C)=O)C(=O)N[C@@H](C(C)C)C(=O)N[C@@H](CCCCN)C(=O)N[C@@H](CC(=O)O)C(=O)N1)C(=O)N[C@@H](CC(C)C)C(=O)N[C@@H](CCC(N)=O)C(=O)N[C@@H](CC(C)C)C(=O)N[C@@H](CC(N)=O)C(=O)N[C@@H](CC(C)C)C(=O)N[C@@H](CCCCN)C(=O)N[C@@H](CCC(=O)O)C(=O)N[C@@H](Cc1ccc(O)cc1)C(=O)N[C@@H](CC(N)=O)C(=O)N[C@@H](CC1CCCCC1)C(=O)N[C@H](C(=O)O)C(C)C [SBL-GQ-06] (Ac-KKKFA[Pra]VKD[Lys(N3)]ILQLNLKEYN[Cha]V-OH; triazole 6-10)
[1]
  maximum emission wavelength of bimane: ~478 nm
[2]
  Shift: 8
  increase of agonist affinity / stabilization of the receptor: slight increase in agonist affinity

## CC[C@H](C)[C@H](NC(=O)[C@@H]1CCCCn2cc(nn2)C[C@H](NC(=O)[C@H](CC(N)=O)NC(=O)[C@H](Cc2ccccc2)NC(=O)[C@H](CCCCN)NC(=O)[C@H](CCCCN)NC(=O)[C@H](CCCCN)NC(C)=O)C(=O)N[C@@H](CS)C(=O)N[C@@H](CCCCN)C(=O)N[C@@H](CC(=O)O)C(=O)N1)C(=O)N[C@@H](CC(C)C)C(=O)N[C@@H](CCC(N)=O)C(=O)N[C@@H](CCSC)C(=O)N[C@@H](CC(N)=O)C(=O)N[C@@H](CC(C)C)C(=O)N[C@@H](CCCNC(=N)N)C(=O)N[C@@H](CCC(=O)O)C(=O)N[C@@H](Cc1ccc(O)cc1)C(=O)N[C@@H](CC(N)=O)C(=O)N[C@@H](CC(C)C)C(=O)N[C@H](C(=O)O)C(C)C [SBL-GQ-11] (Ac-KKKFN[Pra]CKD[Lys(N3)]ILQMNLREYNLV-OH; triazole 6-10)
[1]
  maximum emission wavelength of bimane: ~478 nm
[2]
  Shift: 7
  increase of agonist affinity / stabilization of the receptor: slight increase in agonist affinity

## CC[C@H](C)[C@H](NC(=O)[C@H](CC(=O)O)NC(=O)[C@H](CCCCN)NC(=O)[C@H](CS)NC(=O)[C@H](CC(=O)O)NC(=O)[C@H](CC(N)=O)NC(=O)[C@H](Cc1ccccc1)NC(=O)[C@H](CCCCN)NC(=O)[C@H](CCCCN)NC(=O)[C@H](CCCCN)NC(C)=O)C(=O)N[C@H](C(=O)N[C@@H](CC(C)C)C(=O)N[C@@H](CCC(N)=O)C(=O)N[C@@H](CCSC)C(=O)N[C@@H](CC(N)=O)C(=O)N[C@@H](CC(C)C)C(=O)N[C@@H](CCCNC(=N)N)C(=O)N[C@@H](CCC(=O)O)C(=O)N[C@@H](Cc1ccc(O)cc1)C(=O)N[C@@H](CC(N)=O)C(=O)N[C@@H](CC1CCCCC1)C(=O)N[C@H](C(=O)O)C(C)C)[C@@H](C)CC [SBL-GQ-10] (Ac-KKKFNDCKDIILQMNLREYN[Cha]V-OH)
[1]; in presence of JMV1843
  conformational change in the receptor: not able to induce a conformational change
[2]
  Shift: 2

## H-RRRRRRRRFA[Pra]VKD[Lys(N3)]ILQLNLKEYNLV-OH (triazole 11-15) [SBL-GQ-15]
[3]
  EC50 (M) of the MK0677 agonist, IP-One Gq assay, SBL-GQ-15 5 µM, n = 1: 2.55e-10 M
  EC50 (M) of the MK0677 agonist, IP-One Gq assay, SBL-GQ-15 5 µM, n = 2: 8.07e-11 M
[4]
  EC50 (M) of the MK0677 agonist, IP-One Gq assay, peptidomimetic at 10 µM, n = 1: 2.75e-10 M
  EC50 (M) of the MK0677 agonist, IP-One Gq assay, peptidomimetic at 10 µM, n = 2: 1.07e-10 M
  EC50 (M) of the MK0677 agonist, IP-One Gq assay, peptidomimetic at 10 µM, n = 3: 7.18e-11 M

## H-RRWWRRWRRFA[Pra]VKD[Lys(N3)]ILQLNLKEYNLV-OH (triazole 12-16) [SBL-GQ-25]
[3]
  EC50 (M) of the MK0677 agonist, IP-One Gq assay, SBL-GQ-25 5 µM, n = 1: 7.82e-10 M
  EC50 (M) of the MK0677 agonist, IP-One Gq assay, SBL-GQ-25 5 µM, n = 2: 1.7e-10 M
  EC50 (M) of the MK0677 agonist, IP-One Gq assay, SBL-GQ-25 10 µM, n = 1: 1.54e-09 M
  EC50 (M) of the MK0677 agonist, IP-One Gq assay, SBL-GQ-25 10 µM, n = 2: 4.65e-10 M
